Measured values reported in US20240059773A1 (PALLEON PHARMACEUTICALS, published 2024).

Experiments:
[1] = biological target: human PD-1 expressed on Jurkat T cells (human, UniProt Q15116 25-288); experiment: cell-based or functional assay
[2] = biological target: T1, recombinant human PD-1 (hPD-1) (human, UniProt Q15116 25-167, limits assumed); experiment: BLI (ForteBio Octet); ASC captured on AHC biosensor, hPD-1 titrated from 100 nM in a 2x series; 1:1 fit
Description: ASCs were captured on an AHC (Anti-human IgG-Capture) biosensor. hPD-1 analytes were titrated from 100 nM in a 2× series dilution. The signal was subtracted with buffer reference and aligned to baseline. KD, Kon and Koff values were generated using a 1:1 fitting model.

[3] = biological target: T1, recombinant human PD-1 (hPD-1); experiment: competition ELISA: antibody titrated 3x and mixed with biotinylated hPD-L1-Fc (1 ug/mL), loaded on hPD-1-coated wells; residual hPD-L1-Fc detected with streptavidin-HRP, A450
Source text: The plate was developed with TMB and Stop buffer and the absorbance at 450 nm was read using a SpectraMax plate reader. A450 absorbance curves and IC50S were generated using GraphPad Prism software.

T1 sequence (Q15116 25-167 limits assumed): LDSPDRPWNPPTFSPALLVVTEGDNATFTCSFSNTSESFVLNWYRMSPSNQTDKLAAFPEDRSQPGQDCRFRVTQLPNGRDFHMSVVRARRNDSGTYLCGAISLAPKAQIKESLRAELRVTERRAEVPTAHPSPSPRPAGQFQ
Sequence of human PD-1 expressed on Jurkat T cells (Q15116 25-288): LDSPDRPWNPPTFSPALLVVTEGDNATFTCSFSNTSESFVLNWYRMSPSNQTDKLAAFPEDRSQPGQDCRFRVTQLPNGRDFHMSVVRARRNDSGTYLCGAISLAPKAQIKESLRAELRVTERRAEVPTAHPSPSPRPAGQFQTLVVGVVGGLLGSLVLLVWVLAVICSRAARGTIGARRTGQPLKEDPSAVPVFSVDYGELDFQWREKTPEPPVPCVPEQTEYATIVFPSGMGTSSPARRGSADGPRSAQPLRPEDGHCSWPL

- EC50 (nM), fold induction of NFAT-driven luciferase [1]: 7.23 nM
- Kd [2]: 10.3 nM
- IC50 (read off the curve) [3]: ~7 nM
B1: ASC #3 (Janus anti-PD-1 antibody sialidase conjugate) (antibody, human IgG1, kappa, N297A)
light: EIVLTQSPATLSLSPGERATLSCRASKGVSTSGYSYLHWYQQKPGQAPRLLIYLASYLESGVPARFSGSGSGTDFTLTISSLEPEDFAVYYCQHSRDLPLTFGGGTKVEIKRTVAAPSVFIFPPSDEQLKSGTASVVCLLNNFYPREAKVQWKVDNALQSGNSQESVTEQDSKDSTYSLSSTLTLSKADYEKHKVYACEVTHQGLSSPVTKSFNRGEC
heavy: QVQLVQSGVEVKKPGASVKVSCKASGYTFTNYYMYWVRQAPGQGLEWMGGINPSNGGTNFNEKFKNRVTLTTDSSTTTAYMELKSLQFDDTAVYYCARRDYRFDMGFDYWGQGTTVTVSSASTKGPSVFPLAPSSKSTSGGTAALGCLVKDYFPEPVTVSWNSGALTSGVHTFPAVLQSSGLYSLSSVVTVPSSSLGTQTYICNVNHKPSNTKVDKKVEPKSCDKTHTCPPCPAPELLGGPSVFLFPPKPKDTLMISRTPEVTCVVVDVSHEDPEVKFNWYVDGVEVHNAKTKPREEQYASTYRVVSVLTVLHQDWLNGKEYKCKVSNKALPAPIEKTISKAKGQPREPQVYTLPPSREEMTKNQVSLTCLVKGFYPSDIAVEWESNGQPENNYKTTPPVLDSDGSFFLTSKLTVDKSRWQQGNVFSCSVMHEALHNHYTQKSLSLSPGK
chain: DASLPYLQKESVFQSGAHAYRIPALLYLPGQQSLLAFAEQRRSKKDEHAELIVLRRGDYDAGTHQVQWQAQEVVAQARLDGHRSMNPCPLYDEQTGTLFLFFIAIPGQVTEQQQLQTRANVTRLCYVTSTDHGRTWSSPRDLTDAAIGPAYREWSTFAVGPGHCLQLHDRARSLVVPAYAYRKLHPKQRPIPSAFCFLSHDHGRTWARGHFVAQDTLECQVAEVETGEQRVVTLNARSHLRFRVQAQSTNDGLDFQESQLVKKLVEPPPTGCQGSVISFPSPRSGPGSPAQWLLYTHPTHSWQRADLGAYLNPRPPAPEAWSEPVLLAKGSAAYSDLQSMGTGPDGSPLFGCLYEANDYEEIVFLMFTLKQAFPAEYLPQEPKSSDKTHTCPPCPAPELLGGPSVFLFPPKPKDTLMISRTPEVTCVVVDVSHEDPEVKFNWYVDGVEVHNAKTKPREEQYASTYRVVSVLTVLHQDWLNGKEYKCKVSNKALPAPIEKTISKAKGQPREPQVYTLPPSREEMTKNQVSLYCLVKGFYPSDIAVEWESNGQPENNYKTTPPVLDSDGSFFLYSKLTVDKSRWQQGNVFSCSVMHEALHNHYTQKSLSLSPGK
notes: Janus format: one antibody arm (one heavy and one light chain) and one sialidase-Fc fusion, heterodimerised by knob (T366Y) and hole (Y407T) mutations; also called ASC #3-1; ASC #3-2
